Patent publication US20220125845A1 (GUANGDONG TCRCURE BIOPHARMA TECHNOLOGY, published 2022)
Residue numbers refer to the chain shown, from its start.

B1: humanized anti-ALPP antibody A05 (antibody, V domains shown)
VH: QVQLKESGPGLVAPSQTLSLTCTVSGFSLTSYGVSWIRQPPGKGLEWIGVIWEDGSTNYHSALISRVSISVDTSKSQFSLKLSSVDAADTAVYYCARPHYGSSYVGAMEYWGQGTTVTVSS
VL: DIQMTQSPSSLSASVGDRVTITCRASENIYSYVAWYQQKPGKAPKFLIYNAKSLAEGVPSRFSGSGSGTDFTLTISSLQPEDFANYYCQHHYVSPWTFGQGTKVEIK
notes: Detected with a goat anti-human secondary antibody; also called A05Ab
B2: humanized anti-ALPP antibody A07 (antibody, V domains shown)
VH: B1 VH with R97K
VL: B1 VL
notes: Detected with a goat anti-human secondary antibody; also called A07Ab
B3: humanized anti-ALPP antibody A06 (antibody, V domains shown)
VH: B1 VH with R97K
VL: B1 VL with F46L
notes: Detected with a goat anti-human secondary antibody; also called A06Ab
B4: humanized anti-ALPP antibody A04 (antibody, V domains shown)
VH: B1 VH with K5Q
VL: B1 VL
notes: Detected with a goat anti-human secondary antibody; also called A04Ab
B5: humanized anti-ALPP antibody A08 (antibody, V domains shown)
VH: B1 VH with K5Q, A13K
VL: B1 VL
notes: Detected with a goat anti-human secondary antibody; also called A08Ab
B6: parent mouse anti-ALPP antibody H17E2 (antibody, V domains shown)
VH: QVQLKESGPGLVAPSQSLSITCTVSGFSLTSYGVSWVRQPPRKGLEWLGVIWEDGSTNYHSALISRLSINKDNSKSQVFLKLNSLQTDDTATYYCAKPHYGSSYVGAMEYWGQGTSVTVSS
VL: DIQMTQSPASLTASVGETVTITCRASENIYSYVAWYQQKQGKSPQFLVYNAKSLAEGVPSRFSGSGSGTQFSLKINSLQPEDFGNYYCQHHYVSPWTFGGGTKLEIK
notes: Mouse monoclonal antibody, detected with goat anti-mouse Fc secondary antibodies; also called A02; A02 antibody

What was measured:
[1] = target: ALPP on ALPP-positive SiHa cervical cancer cells (UniProt P05187); assay: cell-based or functional assay
[2] = target: T1, ALPP on ALPP-positive SiHa cervical cancer cells (UniProt P05187 23-506, limits assumed); assay: flow cytometry on SiHa cells, AF488 goat anti-human secondary
T1 construct: whole, on cells; SiHa cells (ATCC) are called ALPP-positive cervical cancer cells, and ALPP is the target meant; SiHa is a human line; also called PLAP; SiHa cells
Protocol: (§1) 0.2×10⁶ SiHa cells were incubated with serially diluted anti-ALPP antibodies as described herein. Afterward, an AF488 goat anti-human secondary antibody or an AF488 goat anti-mouse IgG (Fcγ fragment specific) was used to stain the cells. Then, the fluorescently stained cells were detected by flow cytometry. Binding curves and calculated EC₅₀ values are shown in FIG. 10B and the table below, respectively.

[3] = target: T2, ALPP antigen (alkaline phosphatase, placental), coated on ELISA plates (UniProt P05187 23-506, limits assumed); assay: ELISA, plate coated with 125 ng ALPP antigen, biotin goat anti-human and streptavidin-HRP, OD450
T2 construct: 125 ng ALPP antigen was coated per plate/well; the general description concerns human ALPP; also called PLAP; placental alkaline phosphatase
Protocol: (§2) Enzyme-linked immunosorbent assay (ELISA) plates were coated with 125 ng ALPP antigen. After blocking the plates, serial dilutions of anti-ALPP antibodies including A02 (H17E2), A04, A05, A06, A07, A08, A09, or a chimeric antibody were added to corresponding wells. Then, a Biotin-SP-AffiniPure goat anti-human antibody was added to wells containing the humanized antibodies A04, A05, A06, A07, A08, A09, or the chimeric antibody. Meanwhile, a Biotin-SP-AffiniPure goat anti-mouse Fc antibody was added to wells containing the mouse antibody H17E2. Next, HRP-conjugated streptavidin was used for biotin detection. Final detection was accomplished by assessing OD450 after 3,3′,5,5′-Tetramethylbenzidine (TMB) substrate was added. Binding curves and calculated EC₅₀ values are shown in FIG. 10A and the table below, respectively.

[4] = target: T1, ALPP on ALPP-positive SiHa cervical …; assay: flow cytometry on SiHa cells, AF488 goat anti-mouse IgG (Fcγ specific) secondary
Protocol: as §1

[5] = target: T2, ALPP antigen (alkaline phosphatase, …); assay: ELISA, plate coated with 125 ng ALPP antigen, biotin goat anti-mouse Fc and streptavidin-HRP, OD450
Protocol: as §2

T1 sequence (P05187 23-506 limits assumed): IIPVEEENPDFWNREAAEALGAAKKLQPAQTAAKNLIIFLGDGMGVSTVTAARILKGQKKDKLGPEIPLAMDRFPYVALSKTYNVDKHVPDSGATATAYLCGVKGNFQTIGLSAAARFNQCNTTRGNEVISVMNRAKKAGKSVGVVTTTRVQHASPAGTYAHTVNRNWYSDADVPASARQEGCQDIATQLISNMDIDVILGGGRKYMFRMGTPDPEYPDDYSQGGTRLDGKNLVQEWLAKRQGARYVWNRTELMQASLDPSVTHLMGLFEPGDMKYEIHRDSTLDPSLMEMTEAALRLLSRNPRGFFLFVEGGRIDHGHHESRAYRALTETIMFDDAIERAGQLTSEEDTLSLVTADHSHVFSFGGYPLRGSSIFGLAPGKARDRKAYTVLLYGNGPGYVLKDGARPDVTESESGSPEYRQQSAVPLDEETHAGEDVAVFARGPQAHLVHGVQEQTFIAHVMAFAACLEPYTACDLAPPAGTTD
T2 sequence (P05187 23-506 limits assumed): as above
Chain of ALPP on ALPP-positive SiHa cervical cancer cells (UniProt P05187) (P05187 23-506 limits assumed): as above

| Molecule | CD69 expression in CD3+ Jurkat cells (percent activated), overnight co-culture with SiHa cells [1] | EC50 [2] | EC50 [3] | EC50 [4] | EC50 [5] |
| --- | --- | --- | --- | --- | --- |
| A02 CAR (murine H17E2 scFv, CD8 hinge and transmembrane region, 4-1BB, CD3 zeta) | 70 to 80% |  |  |  |  |
| B1 |  | 0.225 mg/L | 0.00491 mg/L |  |  |
| B2 |  | 0.302 mg/L | 0.00534 mg/L |  |  |
| B3 |  | 0.257 mg/L | 0.0037 mg/L |  |  |
| B4 |  | 0.286 mg/L | 0.00589 mg/L |  |  |
| B5 |  | 0.233 mg/L | 0.00481 mg/L |  |  |
| B6 |  |  |  | 0.211 mg/L | 0.0108 mg/L |
